This assay concerns the target T1, human NOTCH3 extracellular domain (human, UniProt Q9UM47 40-1643).
T1 construct: In the tissue IHC the target is endogenous NOTCH3 in tumor sections; also called NOTCH3 ECD
The experiment in a line: screening by FACS, Western blot and IHC on FFPE pellets of HEK-293 cells transiently transfected with NOTCH ECD constructs. The source says:
Screening was first done by FACS, followed by Western blot analyses and then in IHC assays using HEK-293 cells transiently transfected with NOTCH1, NOTCH2, NOTCH3, or NOTCH4 ECD constructs. Starting with 68 supernatants from hybridoma cells, seven candidate antibodies were selected for further testing and optimization in IHC assays, 122M23, 122M25, 122M26, 122M27, 122M35, 122M36, and 122M40. […] The desired antibody needed to be specific for NOTCH3 ECD, so the staining had to be predominantly membrane localized, with minimal or no detectable background non-specific staining in transiently transfected cell pellets in FFPE format. In addition, the antibody had to give appropriate results on positive and negative control tissues.
(In flow cytometry, cells or beads pass a laser one at a time.)

T1 sequence (Q9UM47 40-1643 limits assumed): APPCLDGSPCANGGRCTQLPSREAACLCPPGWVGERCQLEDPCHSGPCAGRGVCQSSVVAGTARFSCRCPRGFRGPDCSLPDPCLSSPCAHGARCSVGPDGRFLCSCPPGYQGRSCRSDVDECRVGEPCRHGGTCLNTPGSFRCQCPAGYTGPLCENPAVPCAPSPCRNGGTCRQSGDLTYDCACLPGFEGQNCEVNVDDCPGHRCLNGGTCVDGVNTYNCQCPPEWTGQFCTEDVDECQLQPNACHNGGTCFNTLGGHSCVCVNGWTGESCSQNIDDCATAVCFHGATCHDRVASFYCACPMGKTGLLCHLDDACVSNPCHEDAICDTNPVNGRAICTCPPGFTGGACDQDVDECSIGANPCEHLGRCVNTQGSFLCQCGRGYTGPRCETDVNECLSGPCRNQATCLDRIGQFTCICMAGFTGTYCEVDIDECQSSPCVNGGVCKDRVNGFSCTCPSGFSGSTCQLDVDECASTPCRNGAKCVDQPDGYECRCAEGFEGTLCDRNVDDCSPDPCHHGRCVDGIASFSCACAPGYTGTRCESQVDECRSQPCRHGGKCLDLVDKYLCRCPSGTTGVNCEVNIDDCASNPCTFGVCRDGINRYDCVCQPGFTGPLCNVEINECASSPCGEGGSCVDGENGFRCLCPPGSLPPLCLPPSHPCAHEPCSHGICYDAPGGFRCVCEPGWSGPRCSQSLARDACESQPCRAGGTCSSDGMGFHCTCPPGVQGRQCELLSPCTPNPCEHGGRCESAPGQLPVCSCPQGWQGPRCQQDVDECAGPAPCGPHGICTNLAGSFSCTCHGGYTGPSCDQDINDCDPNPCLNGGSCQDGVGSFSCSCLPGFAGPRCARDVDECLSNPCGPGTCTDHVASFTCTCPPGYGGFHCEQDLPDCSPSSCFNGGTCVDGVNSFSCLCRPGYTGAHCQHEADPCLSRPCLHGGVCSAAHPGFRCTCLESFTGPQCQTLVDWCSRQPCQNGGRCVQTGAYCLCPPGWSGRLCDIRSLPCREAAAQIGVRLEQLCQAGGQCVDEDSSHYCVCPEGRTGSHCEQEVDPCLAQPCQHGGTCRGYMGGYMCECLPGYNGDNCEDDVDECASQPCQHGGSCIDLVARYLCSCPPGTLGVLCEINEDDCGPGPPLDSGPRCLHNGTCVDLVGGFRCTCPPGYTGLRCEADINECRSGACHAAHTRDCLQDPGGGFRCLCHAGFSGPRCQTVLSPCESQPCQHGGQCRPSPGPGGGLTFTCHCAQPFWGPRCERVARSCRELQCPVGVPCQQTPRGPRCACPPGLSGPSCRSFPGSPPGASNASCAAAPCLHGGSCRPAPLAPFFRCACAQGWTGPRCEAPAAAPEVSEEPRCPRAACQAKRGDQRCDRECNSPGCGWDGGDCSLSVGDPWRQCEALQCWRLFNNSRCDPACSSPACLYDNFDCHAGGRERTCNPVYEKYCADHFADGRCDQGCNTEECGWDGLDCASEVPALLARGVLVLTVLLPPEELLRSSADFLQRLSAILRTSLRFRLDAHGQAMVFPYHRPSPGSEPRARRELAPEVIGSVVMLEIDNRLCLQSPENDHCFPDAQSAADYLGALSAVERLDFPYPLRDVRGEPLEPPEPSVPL

B1: anti-NOTCH3 antibody 122M23 (antibody, V domains shown)
VH: QVQLQQSGAELARPGASVKMSCKASGYTFTKYTIHWVAQKPGQGLEWIGYINPSNDYTNYNQTFKDKATLTADKSSTTAYMQLISLTSADSTVFYCARGTTPYSLDYWGQGTSVTVSS
VL: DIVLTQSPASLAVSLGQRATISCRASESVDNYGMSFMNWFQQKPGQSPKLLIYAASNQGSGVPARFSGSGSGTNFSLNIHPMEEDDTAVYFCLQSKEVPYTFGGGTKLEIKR
notes: Murine monoclonal antibody from a hybridoma (ATCC PTA-121154); also called murine monoclonal antibody 122M23
As to B1, the binding result is reported as “binds”.
